Laboratory results reported in PMC3177975.

B1: PoxA (Escherichia coli K-12) (protein)
chain: MSETASWQPSASIPNLLKRAAIMAEIRRFFADRGVLEVETPCMSQATVTDIHLVPFETRFVGPGHSQGMNLWLMTSPEYHMKRLLVAGCGPVFQLCRSFRNEEMGRYHNPEFTMLEWYRPHYDMYRLMNEVDDLLQQVLDCPAAESLSYQQAFLRYLEIDPLSADKTQLREVAAKLDLSNVADTEEDRDTLLQLLFTFGVEPNIGKEKPTFVYHFPASQASLAQISTEDHRVAERFEVYYKGIELANGFHELTDAREQQQRFEQDNRKRAARGLPQHPIDQNLIEALKVGMPDCSGVALGVDRLVMLALGAETLAEVIAFSVDRA
B2: PoxA (Escherichia coli K-12; A298G) (protein)
chain: MSETASWQPSASIPNLLKRAAIMAEIRRFFADRGVLEVETPCMSQATVTDIHLVPFETRFVGPGHSQGMNLWLMTSPEYHMKRLLVAGCGPVFQLCRSFRNEEMGRYHNPEFTMLEWYRPHYDMYRLMNEVDDLLQQVLDCPAAESLSYQQAFLRYLEIDPLSADKTQLREVAAKLDLSNVADTEEDRDTLLQLLFTFGVEPNIGKEKPTFVYHFPASQASLAQISTEDHRVAERFEVYYKGIELANGFHELTDAREQQQRFEQDNRKRAARGLPQHPIDQNLIEALKVGMPDCSGVGLGVDRLVMLALGAETLAEVIAFSVDRA

Experiments:
Conditions in all cases: amino acid activation with ATP; no EF-P stated
[1] = substrate: NCCCC[C@H](N)C(=O)O; assay: purified protein
[2] = substrate: NCCC[C@@H](N)CC(=O)O; assay: steady-state kinetics of amino acid activation; format: biochemical, Escherichia coli
[3] = substrate: NCCC[C@H](N)CC(=O)O; assay: steady-state kinetics of amino acid activation; format: biochemical, Escherichia coli

Row | Protein | Km [1] [µM] | kcat [1] [s⁻¹] | kcat/Km [1] [M⁻¹ s⁻¹] | Km [2] [µM] | kcat [2] [s⁻¹] | kcat/Km [2] [M⁻¹ s⁻¹] | Km [3] [µM] | kcat [3] [s⁻¹] | kcat/Km [3] [M⁻¹ s⁻¹]
1 | B1 | 8600 ± 1200 | 0.25 | 28.3 | 213 ± 31 | 0.6 ± 0.055 | 2820 | 6950 ± 1894 | 0.0467 | 6.67
2 | B2 | 344 ± 44 | 0.0633 | 185 | 414 ± 63 | 0.283 ± 0.00833 | 683 |  |  | 
